Holding throughout (test): AUC
Series [1] deals with the molecule itself.
Series [2] deals with the molecule itself. This is another data set of the same source.
Series [3] concerns the molecule itself. The source holds these as a separate data set.
Series [4] deals with the molecule itself. The source holds these as a separate data set.

Like-named read-outs stand apart in the source and are kept apart here.

In general, Kd refers to a measure of binding affinity in units of concentration. A high value points to lower affinity. As a reminder, the stoichiometry N is a count of units in the complex or per binding partner.

B1: S100A12 (natural protein, human)
chain: TKLEEHLEGIVNIFHQYSVRKGHFDTLSKGELKQLLTKELANTIKNIKDKAVIDEIFQGLDANQDEQVDFQEFISLVAIALKAAHYHTHKE
On to B1, for which the Kd stood at 4590 µM in series [1], 56.7 µM in series [2] and 13.2 µM in series [3]. Further, the “stoichiometry N” value in series [4] came to 2.

The record behind these values is PMC7292962 (Biochemistry, 2019).
